Data set [1] has as its system Jurkat T cells. In words: FACS and confocal analysis of FITC-labeled TAT fusion proteins added to Jurkat T cells. The conditions noted are these: FITC-labeled protein added to media of Jurkat T cells. The format is cell-based. The procedure: To test the ability of TAT-Casp3 proteins to transduce into cells, TAT-Casp3 proteins were conjugated to fluorescein (FITC), then added directly to the media of Jurkat T cells and analyzed by Flow Cytometry (FACS) (FIGS. 9B-C). Both TAT-Casp3WT and TAT-Casp3MUT proteins rancidly transduced into ˜100% of cells, achieving maximum intracellular concentration in less than 20 min. In addition, based on the narrow peak width before and after addition of FITC labeled proteins, individual cells within the population contain near identical intracellular concentrations of TAT-Casp3-FITC protein. […] Thus, TAT-Casp3 proteins readily transduce into 100% of all cells inca rapid and concentration-dependent fashion.
The generation and transduction of TAT fusion proteins shown in FIGS. 9A-E are explained in more detail as follows: FIG. 9A. Diagram depicting HIV cleavage site sequences and domains of TAT fusion proteins. FIGS. 9B-D. FACS kinetic analysis of fluorescein (FITC) labeled TAT-Casp3WT, TAT-Casp3MUT and TAT-HIV Pr proteins added to cells at 0, 20 and 30 min. FIG. 9E. FACS dose analysis of 3, 6, and 12 nM TAT-Casp3WT-FITC protein added to cells at I hr post-addition. Note rapid, concentration-dependent transduction of all FITC labeled protein into ˜100% of cells and near identical intracellular concentration within the population as measured by FACS peak width of control vs. transduced cells.
(§1) 1. […] See Lissy, N. A., et al. (supra). […] See Ezhevsky, S. A., et al. (supra). […] See Xiang, J., et al., (supra). […] See Xiang, J., et al., (supra). […] See Ezhevsky, S. A., et al. (supra).

Data set [2] deals with caspase-3 activity (DEVD-AFC cleavage). In words: Caspase-3 enzyme assay, cleavage of DEVD-AFC by whole cell lysate of transduced Jurkat T cells. In kind it is cell-based. As to conditions: 6 hr. The protocol: (§2) Additionally, transduced cultures were tested for degraded genomic DNA by TUNEL assay. See Coates, P. J., Molecular methods for the identification of apoptosis in tissues. J. Histotechnology 17: 261 (1994). […] Activation of TAT-Casp3 was also assayed by its ability to cleave an artificial Caspase-3 substrate. […] See Xiang, J., et al., Bax-induced cell death may not require interleukin 1B-converting enzyme-like proteases. Proc. Natl. Acad. Sci. USA 93: 14550 (1996).
(§3) The HIV Protease activates TAT-Casp3WT protein shown in FIGS. 12A-B are explained in more detail as follows. FIG. 12A. […] Abscissa: TUNEL positive cells per high-powered microscopic field; Ctrl, control addition of PBS to cultures; error bars represent SD. FIG. 12B. […] Ctrl, control PBS addition; ocFAS crosslinking, positive control.
as §1

For data set [3], the system named is Jurkat T cells. In words: Cytotoxicity of TAT-Casp3 on uninfected Jurkat T cells, viability by Trypan Blue exclusion. The conditions noted are these: 100 nM TAT-Casp3 or 50 nM TAT-HIV Pr, uninfected Jurkat T cells, 16 hr. The procedure:
In addition, the ability of TAT-Casp3 protein to induce apoptosis in cells co-transduced with TAT-HIV Pr protein was tested. Jurkat T cells were treated with 100 nM TAT-Casp3WT or TATCasp3MUT proteins alone or in combination with 50 nM TAT-HIV Pr protein and assayed for cell viability 16 hr post-treatment (FIG. 11A). […] See Salvensen, G. S., et al., Henkart, P. A., Cohen, G. M., Woo, M., et al., Enari, M. et al., Liu, X., et al. (supra).
FIG. 11A Cultures of Jurkat T cells were transduced with combinations of TAT-Casp3WT (WT), TAT-Casp3MUT (MUT) and TAT-HIV Protease (Pr) proteins for 16 hr and analyzed for cell viability. […] FIG. 11B Cultures of Jurkat T cells were co-transduced with TAT-Casp3WT (WT), TAT-Casp3MUT (MUT) proteins in combination with TAT-HIV Pr (Pr) protein and analyzed for kinetics of cell viability as indicated.
1. Cell culture-p16(−) Jurkat T cells (ATCC) were grown as described. See Lissy, N. A., et al. (supra). For in vivo substrate cleavage, 1×10^6 cells were transduced with 100 nM TAT-p16, TAT-A-p16, TAT-Casp3MUT and/or 50 nM TAT-HIV Pr proteins for 1, 5 or 8 hr as indicated and analyzed by anti-p16 (Santa Cruz) or anti-Casp3 (Pharmingen) immunoblot analysis. See Ezhevsky, S. A., et al. (supra). For cytotoxicity of TAT-Casp3 on uninfected cells, 1×10^6 cells were transduced with 100 nM TAT-Casp3WT, TAT-Casp3MUT and/or 50 nM TAT-HIV Pr proteins for 16 hr and assayed for viability by Trypan Blue exclusion and/or genomic DNA damage by TUNEL assay (Trevigen). Number of TUNEL positive cells reported as per high-powered microscopic field with four fields per experiment averaged. TAT-Casp3 activity was measured by incubation of 20 μg of whole cell lysate with 50 μM DEVD-AFC and fluorescent AFC formation measured on a FL500 microplate fluorescence reader (Bio-Tek) as described. See Xiang, J., et al., (supra). Cells were preincubated with 1 μg/ml Ritonavir (Abbott Labs) for 1 hr prior to transduction. For cytotoxicity of TAT-Casp3 on infected cells, Jurkat cultures were infected with 100 ng p24 Ag equivalent NLHX HIV-I strain for 7-14 days, assayed microscopically for cytopathic effects, then replated at 1×10^6/ml and transduced with 100 nM of TAT-Casp3WT or TAT-Casp3MUT proteins for 16 hr followed by exclusionary dye viability analysis. Infected cells were pretreated with 1 μg/ml Ritonavir for 24 hr prior to transduction with TAT-Casp3WT protein. See Xiang, J., et al., (supra). For Flow Cytometry (FACS) analysis, fluorescein (FITC) conjugated TAT fusion proteins were added to Jurkat T cell culture media and 1×10^4 cells were analyzed by FACS as described. See Ezhevsky, S. A., et al. (supra).

Data set [4] relates to Jurkat T cells. Description: TUNEL assay for degraded genomic DNA in transduced Jurkat T cells. The format is cell-based. As to conditions: for TUNEL positive cells, protein transduced alone: 100 nM TAT-Casp3 or 50 nM TAT-HIV Pr. The procedure:
as §2, §3, §1

Data set [5] concerns the target T1, HIV Protease (Human immunodeficiency virus type 1 group M subtype B, UniProt P04585).
T1 construct: PCR cloning the HIV Protease gene from HXB2R HIV strain; 6xHis (from the pTAT vector) (N); made in house; the purified protein was added to Jurkat T cells
In words: In vivo substrate cleavage by co-transduced TAT-HIV Pr in Jurkat T cells, immunoblot. The format is cell-based. The conditions noted are these: 100 nM substrate, 50 nM TAT-HIV Pr, Jurkat T cells, immunoblot. The protocol:
To assay for in vivo cleavage, p 16(−) Jurkat T cells were transduced with 100 nM TAT-Ap16 or control TAT-p16 protein (no HIV cleavage site) alone or in combination with 50 nM TATHIV Pr fusion protein for 5 hr and analyzed by anti-p16 immunoblot for in vivo cleavage at the HIV A proteolytic cleavage site (FIG. 10A). […] Size analysis of the cleaved TAT-A-p 16 protein was consistent with retention of the residual HIV half site present on the N′ terminus of p 16 (FIG. 10A, see lane 4 vs. 5).
Further, the TAT-Casp3MUT protein was transduced in combination with TAT-HIV Pr protein into cells (FIG. 10B).
The in vivo processing in co-transduced cells shown in FIGS. 10A and 10B is explained in more detail as follows. FIG. 10A. Cultures of p16(−) Jurkat T cells were transduced with TAT-p 16 or TAT-A-p 16 substrate proteins in combination with TATHIV Pr proteins for 5 hr and subjected to anti-p 16 immunoblot analysis. […] WCE, HepG2 whole cell lysate containing wild type endogenous p16; A-p16, cleaved TAT-A-16 product retaining the HIV half site on p16. FIG. 10B. Cultures of Jurkat T cells were transduced with TATCasp3MUT protein (TAT-“D” site-p 17 domain-“A” site-p12 domain) alone or in combination with TAT-HIV Pr (Pr) protein as indicated and immunoblotted with anti-Caspase-3 antibodies specific for the p17 domain. TAT-D-p17-A, cleaved product of TAT-Casp3 containing the N′ terminal HIV A half site.
as §1

In data set [6] the test system is Jurkat T cells infected with the NLHX strain of HIV-I. In words: Cytotoxicity of TAT-Casp3 on HIV infected Jurkat cultures, exclusionary dye viability analysis. The format is cell-based. The conditions noted are these: 100 nM, 16 hr, cultures approximately 50% HIV positive.
Excerpt: To make this determination, Jurkat T cells were infected for 7-14 days with the NLHX strain of HIV-I and examined microscopically for HIV cytopathic effects. See Westervelt, P., et al., Identification of a determinant within the HIV-1 surface envelope glycoprotein critical for productive infection of cultured primary monocytes. Proc. Natl. Acad. Sci USA 88: 3097 (1991). At the start of each transduction experiment approximately 50% of the culture was HIV positive. HIV infected cultures were transduced for 16 hr with 100 nM TAT-Casp3WT or TATCasp3MUT protein and then assayed for cell viability (FIG. 13). […] In addition, we detected both the appearance of cells containing <2N DNA content and cells with condensed nuclei in TAT-Casp3 treated cells.
To determine if TAT-Casp3WT induced apoptosis was dependent on active HIV Protease in the infected cultures, HIV infected cultures were pretreated with 1 μg/ml Ritonavir prior to transduction with 100 nM TAT-Casp3WT protein (FIG. 5). […] In addition, the observed increased survival of Ritonavir treated cells is consistent with increased longevity of protease inhibitor treated HIV infected cells. See Coffin, J. M., et al. (supra).
The specific killing of HIV infected cells shown in FIG. 5 is explained in more detail as follows. Jurkat T cells were infected for 7-14 days with HIV strain NLHX, then transduced with TAT-Casp3WT (WT) or TAT-Casp3MUT (MUT) proteins for 16 hr and assayed for cell viability. […] Ctrl, control addition of PBS to cultures; abscissa, % viability of HIV positive cells in the population at start of transduction; error bars represent SD.
as §1

“Also recorded” adds a separate entry of the source.

As for “TAT-HIV Pr: transducible HIV Protease, gene from HXB2R HIV strain cloned into pTAT”, the cells transduced in data set [1] is on record as 100%. In addition, the “caspase activity, protein transduced alone” value in data set [2] was “only background levels”. Further, the “cytotoxicity when transduced alone” value in data set [3] is recorded as “absence”. For the same molecule, the “TUNEL positive cells, protein transduced alone” value in data set [4] was “only background levels; also recorded: remained at background levels”.

B1: TAT-Casp3MUT: catalytically inactive TAT-Casp3 with Met substituted for the active site Cys163 residue (protein)
chain: GRKKRRQRRRGYPYDVPDYACTERQANFLGKIWPGISLDNSYKMDYPEMGLCIIINNKNFHKSTGMTSRSGTDVDAANLRETFRNLKYEVRNKNDLTREEIVELMRDVSKEDHSKRSSFVCVLLSHGEEGIIFGTNGPVDLKKITNFFRGDRCRSLTGKPKLFIIQAMRGTELDCGIETSQVSQNYPIVQNLQGVDDDMACHKIPVEADFLYAYSTAPGYYSWRNSKDGSWFIQSLCAMLKQYADKLEFMHILTRVNRKVATEFESFSFDATFHAKKQIPCIVSMLTKELYFYH
modifications: left off: small tags and cut ends
B1 came in with a cells transduced in data set [1] of about 100%. The “caspase activity, protein transduced alone” value in data set [2] is given as “only background levels”. Moreover, in data set [4], the “TUNEL positive cells, protein transduced alone” value is listed as “only background levels; also recorded: remained at background levels”. Moreover, in data set [4] (100 nM plus 50 nM TAT-HIV Pr), the “TUNEL positive cells, co-transduced with TAT-HIV Pr” value was “only background; also recorded: remained at background levels”. In data set [5], the “cleavage at the HIV cleavage site when co-transduced with TAT-HIV Pr” value is on record as “specific cleavage”. For the same molecule, the “effect on viability of HIV positive cells” value in data set [6] is listed as “no effect”; in data set [6] (listed as TATCasp3MUT), “negligible effects”.

For the origin of these results see patent publication US6645501B2, “Anti-pathogen system and methods of use thereof” (Washington University, priority 1997, dated 2003).
